Results published in patent US20170037110A1 (IMMATICS BIOTECHNOLOGIES, published 2017).

Molecular target: T1, HLA-A*02:01 (human)
T1 construct: monomers captured on streptavidin plates; also called MHC class I
Test: UV peptide exchange ELISA
Source text: Candidate peptides for T cell based therapies according to the present invention were further tested for their MHC binding capacity (affinity). The individual peptide-MHC complexes were produced by UV-ligand exchange, where a UV-sensitive peptide is cleaved upon UV-irradiation, and exchanged with the peptide of interest as analyzed. Only peptide candidates that can effectively bind and stabilize the peptide-receptive MHC molecules prevent dissociation of the MHC complexes. To determine the yield of the exchange reaction, an ELISA was performed based on the detection of the light chain (p2m) of stabilized MHC complexes.
96 well MAXISorp plates (NUNC) were coated over night with 2 μg/ml streptavidin in PBS at room temperature, washed 4× and blocked for 1 h at 37° C. in 2% BSA containing blocking buffer. […] Peptide-MHC monomers of the UV-exchange reaction were diluted 100 fold in blocking buffer. Samples were incubated for 1h at 37° C., washed four times, incubated with 2 μg/ml HRP conjugated anti-p2m for 1h at 37° C., washed again and detected with TMB solution that is stopped with […]. Absorption was measured at 450 nm.

Row | Binder | peptide exchange yield [%]
1 | YLFDDPLSAV | 20 to 50
2 | AIAGAGILYGV | 20 to 50
3 | GIMEHITKI | ≥ 75
4 | YLQELIFSV | 50 to 75
5 | VLVSDGVHSV | 50 to 75
6 | YQYPRAILSV | 50 to 75
7 | YLIDIKTIAI | 20 to 50
8 | KIGDEPPKV | 20 to 50
9 | SVIPQIQKV | 50 to 75
10 | SLINGSFLV | 50 to 75
11 | VQIHQVAQV | 50 to 75
12 | LLVEQPPLAGV | 50 to 75
13 | LIIDQADIYL | 50 to 75
14 | RLWEEGEELEL | 50 to 75
15 | FLATSGTLAGI | 20 to 50
16 | NLLELFVQL | 50 to 75
17 | FLSQVDFEL | 50 to 75
18 | ALFPGVALLLA | ≥ 75
19 | GLLPTPLFGV | 50 to 75
20 | KILQQLVTL | 50 to 75
21 | ILPDGEDFLAV | 50 to 75
22 | FLIANVLYL | 10 to 20
23 | YLDFSNNRL | 20 to 50

Row | Binder | peptide exchange yield [%]
24 | SLMEPPAVLLL | 50 to 75
25 | YLADPSNLFVV | 50 to 75
26 | YLLSTNAQL | ≥ 75
27 | YLFESEGLVL | 50 to 75
28 | YIFTDNPAAV | 50 to 75
29 | KVLSNIHTV | 20 to 50
30 | LLQAIKLYL | 20 to 50
31 | IILSILEQA | ≥ 75
32 | ILVGGGALATV | 50 to 75
33 | SLVGEPILQNV | 20 to 50
34 | YHIDEEVGF | 10 to 20
35 | FLFATPVFI | 50 to 75
36 | FLYIGDIVSL | ≥ 75
37 | SLVGLLLYL | ≥ 75
38 | TLAEEVVAL | 50 to 75
39 | YIMEPSIFNTL | 50 to 75
40 | ALDDGTPAL | 20 to 50
41 | GLLDGGVDILL | 50 to 75
42 | FLLAEDDIYL | 50 to 75
43 | ALLGIPLTLV | 50 to 75
44 | YVWGFYPAEV | 50 to 75
45 | HLTEVYPEL | 50 to 75
46 | STMEQNFLL | ≥ 75

Row | Binder | peptide exchange yield [%]
47 | FVPPVTVFPSL | 20 to 50
48 | ALSEVDFQL | 50 to 75
49 | TLVLTLPTV | ≥ 75
50 | SLLEAVSFL | 50 to 75
51 | FLWNGEDSALL | 50 to 75
52 | KLIDNNINV | 50 to 75
53 | SLNDEVPEV | 20 to 50
54 | ALYETELADA | 20 to 50
55 | SLASKLTTL | ≥ 75
56 | NLWDLTDASVV | 50 to 75
57 | LLLDITPEI | ≥ 75
58 | SLLEADPFL | 50 to 75
59 | SVMEVNSGIYRV | 50 to 75
60 | FLQPVDDTQHL | 50 to 75
61 | RVANLHFPSV | 50 to 75
62 | ALNPEIVSV | 20 to 50
63 | LLYDAVHIVSV | 50 to 75
64 | ALVSKGLATV | 20 to 50
65 | YMDAPKAAL | 20 to 50
66 | VLAYFLPEA | ≥ 75
67 | ILFEDIFDV | 50 to 75
68 | GVVDPRAISVL | 20 to 50
69 | SLATAGDGLIEL | 20 to 50
